In paper PMC9191617 (Glycobiology, 2022):

Molecular target: the molecule itself
Experiment: crystal structure

B1: CML1 (C. cinerea Mucin-binding Lectin 1), recombinant untagged (natural protein, Coprinopsis cinerea, UniProt B3VS76 1-127, looked up)
chain: MAIFHTGSELFIITRGPGKLTLLTWGGLNNLRSVIGAIPTENTGVTKWAVSFSHNYTRFSFIWEGQGEACYQIGNGLTRSPVGRSWSSSSTIHWGSSTVITEDVTSVVPGAVNRDKVTTAYALPDNL
stoichiometry N: 6
